Measurements taken from US20210246218A1 (LYVGEN BIOPHARMA SUZHOU, published 2021).
Numbering of substitutions follows the chain as printed. Names may count otherwise.

B1: humanized anti-CD137 antibody clone 3712 (IgG4 S228P/kappa) (antibody, V domains shown)
VH: QVQLVQSGAEVKKPGASVKVSCKASGYTFAGFEMHWVRQAPGQGLEWMGAIDPKTGGTDYNQKFKDRVTMTRDTSISTAYMELSRLRSDDTAVYYCARDLGYFDVWGQGTLVTVSS
VL: DIQMTQSPSSLSASVGDRVTITCRASQDIRSNLNWYQQKPGGAVKLLIYYTSRLHSGVPSRFSGSGSGTDYTLTISSLQPEDFATYFCQQSEKLPRTFGGGTKVEIRR
B2: reference antibody 371 (murine/human chimeric) (antibody, V domains shown)
VH: QVQLQQSGAELVRPGASVTLSCKASGYTFAGFEMHWIKQTPVHGLGWIGAIDPKTGGTDYNQKFKDKALLTADKSSNTAYMELRSLTSEDSAVYYCTRDLGYFDVWGTGTTVTVSS
VL: DIQMTQTTSSLSASLGDRVTISCRASQDIRSNLNWYQQKPDGTVKLLIYYTSRLHSGVPSRFSGSGSGTDYSLTISNLEQEDIATYFCQQSEKLPRTFGGGTKLEIRR
B3: humanized anti-CD137 antibody clone 3711 (IgG4 S228P/kappa) (antibody, V domains shown)
VH: B1 VH
VL: B1 VL with G42K, V44P, Y71F, F87Y
B4: humanized anti-CD137 antibody clone 3715 (IgG4 S228P/kappa) (antibody, V domains shown)
VH: B1 VH with K12V, E46G, R72A, A97T
VL: B1 VL
B5: humanized anti-CD137 antibody clone 3719 (IgG4 S228P/kappa) (antibody, V domains shown)
VH: B1 VH with K12V, V20L, V37I, E46G, M48I, V68A, M70L, R72A, A97T
VL: B1 VL with V104L
B6: humanized anti-CD137 antibody clone 3713 (IgG4 S228P/kappa) (antibody, V domains shown)
VH: B1 VH
VL: B1 VL with V104L
B7: humanized anti-CD137 antibody clone 3718 (IgG4 S228P/kappa) (antibody, V domains shown)
VH: B1 VH with K12V, V20L, V37I, E46G, M48I, V68A, M70L, R72A, A97T
VL: B1 VL
B8: humanized anti-CD137 antibody clone 3716 (IgG4 S228P/kappa) (antibody, V domains shown)
VH: B1 VH with K12V, E46G, R72A, A97T
VL: B1 VL with V104L
B9: humanized anti-CD137 antibody clone 3717 (IgG4 S228P/kappa) (antibody, V domains shown)
VH: B1 VH with K12V, V20L, V37I, E46G, M48I, V68A, M70L, R72A, A97T
VL: B1 VL with G42K, V44P, Y71F, F87Y
B10: humanized anti-CD137 antibody clone 3714 (IgG4 S228P/kappa) (antibody, V domains shown)
VH: B1 VH with K12V, E46G, R72A, A97T
VL: B1 VL with G42K, V44P, Y71F, F87Y

target: T1, CD137 protein (UniProt Q07011 24-186, limits assumed); test: BLI (Octet Red 96); reference apparently the parental chimeric antibody 371
T1 construct: also called CD137 antigen; CD137 receptor
Experimental: (§1) The chimeric and humanized antibodies were tested in an antigen binding assay on Octet Red 96 to estimate binding kinetics. Antibodies were loaded onto anti-human Fc (AHC) biosensors. Loaded sensors were dipped into a serial dilution of CD137 protein (300 nM, 1:3 down, 7 points) in assay buffer (PBS with 0.1% BSA, 0.02% Tween-20 (pH 7.2)).

fold higher off-rate [fold] | Binder
3 | B1

target: T1, CD137 protein; test: competition ELISA with CD137L: CD137 receptor coated, antibody titrated, CD137L added; A450-A620 falls with the antibody concentration (midpoint of an inhibition curve, called EC50 in the sheet's table)
Experimental: CD137 receptor was diluted in DPBS to 1 μg/mL, and then coated onto an ELISA plate (Corning, Catalog number: 9018, high binding) with a volume of 50 μL (0.05 μg) per well, and incubated at 4° C. overnight. The plate was decanted and washed once; assay diluent was added 200 μL/well. […] The diluted CD137 receptor was added to the assay plate, 50 μL/well, in duplicate. The plate was incubated one hour at room temperature. […] The plate was incubated one hour at room temperature and then washed three times with PBST. Goat anti-human IgG-H+L HRP conjugated at 1:100,000 20 dilution was added to the plate at 100 μL/well. The plate was then incubated one hour at room temperature followed by washing with PBST four times. The TMB substrate solution was added at 100 μL/well. The color was allowed to develop for 15 minutes, and was stopped with 100 μL/well 2N H2SO4. Absorbance at 450 nm and 620 nm was determined by a Tecan F200 Pro reader.

EC50 [µg/mL] | Binder
0.101 | B2

target: T1, CD137 protein; test: BLI (Octet Red 96), antibody on anti-human Fc sensors, CD137 protein in solution, 1:1 model
Experimental: as §1

Kd [nM] | koff [s⁻¹] | kon [M⁻¹ s⁻¹] | Binder
3.9 | 0.0011 | 280000 | B2
10 | 0.0031 | 310000 | B1
2.4 | 0.00046 | 190000 | B3

target: T1, CD137 protein; test: as above; remark: another data set of the same source
Experimental: as §1, with “KD Measurements of CD137 Antigen Binding were made according to the protocol described in Example 2 above. The” for “The”, “antigen-binding” for “antigen binding”

Kd [nM] | koff [s⁻¹] | kon [M⁻¹ s⁻¹] | Binder
3.9 | 0.0011 | 280000 | B2
5.9 | 0.0018 | 310000 | B4
8.5 | 0.0026 | 310000 | B5
3.8 | 0.0011 | 290000 | B6
8.3 | 0.0026 | 310000 | B7
7 | 0.0022 | 320000 | B8
10 | 0.0031 | 310000 | B1
2.5 | 0.00046 | 190000 | B3
2.3 | 0.00034 | 150000 | B9
 | < 1e-07 | 130000 | B10
